Results as given in publication PMC3737412, “Species-Specific and Cross-Reactive IgG1 Antibody Binding to Viral Capsid Protein 1 (VP1) Antigens of Human Rhinovirus Species A, B and C” (PLoS ONE, 2013).

What was measured:
Experiment in all cases: SEC
[1] = target: Recombinant GST-fusion human poliovirus (HPV) Sabin VP1 with a C-terminal histidine tag (human poliovirus Sabin)
[2] = target: Recombinant GST-fusion HRV-C3 VP1 with a C-terminal histidine tag (human rhinovirus C3 (HRV-C species))
[3] = target: Recombinant GST-fusion HRV-B69 VP1 with a C-terminal histidine tag (human rhinovirus B69 (HRV-B species))
[4] = target: Recombinant GST-fusion HRV-A34 VP1 with a C-terminal histidine tag (human rhinovirus A34 (HRV-A species))
[5] = target: Recombinant GST-fusion HRV-C5 VP1 with a C-terminal histidine tag (human rhinovirus C5 (HRV-C species))
SEC = target: the molecule itself

## Recombinant GST-fusion human poliovirus (HPV) Sabin VP1 with a C-terminal histidine tag (natural protein)
[1]
  stoichiometry N: 10

## Recombinant GST-fusion HRV-C3 VP1 with a C-terminal histidine tag (natural protein)
[2]
  stoichiometry N: 10

## Recombinant GST-fusion HRV-B69 VP1 with a C-terminal histidine tag (natural protein)
[3]
  stoichiometry N: 10

## Recombinant GST-fusion HRV-A34 VP1 with a C-terminal histidine tag (natural protein)
[4]
  stoichiometry N: 10

## Recombinant GST-fusion HRV-C5 VP1 with a C-terminal histidine tag (natural protein)
[5]
  stoichiometry N: 10

B1: Recombinant GST-fusion HRV-B14 VP1 with a C-terminal histidine tag (natural protein)
chain: TVALTEGLGDELEEVIVEKTKQTVASISSGPKHTQKVPILTANETGATMPVLPSDSIETRTTYMHFNGSETDVECFLGRAACVHVTEIQNKDATGIDNHREAKLFNDWKINLSSLVQLRKKLELFTYVRFDSEYTILATASQPDSANYSSNLVVQAMYVPPGAPNPKEWDDYTWQSASNPSVFFKVGDTSRFSVPYVGLASAYNCFYDGYSHDDAETQYGITVLNHMGSMAFRIVNEHDEHKTLVKIRVYHRAKHVEAWIPRAPRALPYTSIGRTNYPKNTEPVIKKRKGDIKSY
SEC
  stoichiometry N: ~10

B2: Recombinant GST-fusion HRV-A1B VP1 with a C-terminal histidine tag (natural protein)
chain: SGPIEQNPVENYIDEVLNEVLVVPNIKESHHTTSNSAPLLDAAETGHTSNVQPEDAIETRYVMTSQTRDEMSIESFLGRSGCVHISRIKVDYNDYNGVNKNFTTWKITLQEMAQIRRKFELFTYVRFDSEVTLVPCIAGRGDDIGHVVMQYMYVPPGAPIPKTRNDFSWQSGTNMSIFWQHGQPFPRFSLPFLSIASAYYMFYDGYDGDNSSSKYGSIVTNDMGTICSRIVTEKQEHPVVITTHIYHKAKHTKAWCPRPPRAVPYTHSRVTNYVPKTGDVTTAIVPRASMKTV
SEC
  stoichiometry N: ~10
